The values below come from the Immune Epitope Database (IEDB).

Among the targets are HLA-A*02:06; HLA-A*02:03; HLA-A*02:02; HLA-A*03:01; HLA-A*31:01; HLA-A*68:01; HLA-A*33:01; HLA-A*11:01.
Assay in all cases: IEDB peptide-MHC binding, purified MHC/competitive/radioactivity; filed as Kd, often an IC50 or EC50 that approximates it; ≥ and ≤ were set here for values at or beyond the usual limits of such assays
Where [1] appears, read: source organism: Vaccinia virus WR.
The mark [2] stands for this setting: source organism: SARS coronavirus Tor2.
Where [3] appears, read: source organism: Vaccinia virus Copenhagen.
The mark [4] stands for this setting: source organism: Mammarenavirus juninense.

As for FTEGKINPLL, the values for the equilibrium dissociation constant (Kd) with HLA-A*02:06 (setting [1]), with HLA-A*02:03 (setting [1]) and in the test with HLA-A*02:02 (setting [1]) were 85.8 nM, 595 nM and 150 nM, respectively.
The like results for LLLENKSLTI were, in that order, 1320 nM, 985 nM and 982 nM.
As to SMYVIPDELI, the figures for the Kd with HLA-A*02:06 (setting [1]), with HLA-A*02:03 (setting [1]) and with HLA-A*02:02 (setting [1]) were 492 nM, 114 nM and 30.7 nM, respectively.
The matching figures for VQTLISLNSM: 853 nM, 5820 nM and 1560 nM.
Turning to VILKDPRIA, the Kd came out at 318 nM in the test with HLA-A*02:06 (setting [1]), 603 nM in the test with HLA-A*02:03 (setting [1]) and 10600 nM with HLA-A*02:02 (setting [1]).
The matching figures for MIYDLNAVTT: 429 nM, 477 nM and 897 nM.
With VMPEKRNVV, the Kd with HLA-A*02:06 (setting [1]) is 3290 nM; with HLA-A*02:03 (setting [1]), 23 nM; in the test with HLA-A*02:02 (setting [1]) it was 1100 nM.
The like results for ATICLKNEGV were, in that order, 42.5 nM, 70.9 nM and 436 nM.
On to KTIISEEYL, for which the Kd with HLA-A*02:06 (setting [1]) turned out to be 150 nM; with HLA-A*02:03 (setting [1]), 1220 nM; with HLA-A*02:02 (setting [1]) it was 916 nM.
The matching figures for TLISSDGARV: 1220 nM, 133 nM and 142 nM.
With VQSVLRDISI, the Kd turned out to be 132 nM with HLA-A*02:06 (setting [1]), 541 nM with HLA-A*02:03 (setting [1]) and 77.9 nM in the test with HLA-A*02:02 (setting [1]).
The matching figures for RVTKRDESSI: no less than 22200 nM, 10700 nM and 12300 nM.
Turning to SVGTGILFM, the Kd with HLA-A*02:06 (setting [1]) was no less than 20700 nM; with HLA-A*02:03 (setting [1]), 2250 nM; with HLA-A*02:02 (setting [1]), 1090 nM.
The like results for NACDKHNKT were, in that order, 18600 nM, 9250 nM and 17900 nM.
With ILDNLRCHSA, the values for the Kd in the test with HLA-A*02:06 (setting [1]), in the test with HLA-A*02:03 (setting [1]) and with HLA-A*02:02 (setting [1]) were 297 nM, 69.3 nM and 972 nM, respectively.
The like results for GTSVIRSNI were, in that order, 1610 nM, 44.8 nM and 386 nM.
Consider YIAGLKIEEI, for which the values for the Kd with HLA-A*02:06 (setting [1]), with HLA-A*02:03 (setting [1]) and with HLA-A*02:02 (setting [1]) were 134 nM, 5.3 nM and 8.92 nM, respectively.
In the case of RAAIDRQVSV, the Kd with HLA-A*02:06 (setting [1]) worked out at 212 nM; with HLA-A*02:03 (setting [1]), 40.8 nM; with HLA-A*02:02 (setting [1]), 626 nM.
In the case of YVVVHGYFT, the figures for the Kd with HLA-A*02:06 (setting [2]), in the test with HLA-A*02:03 (setting [2]) and with HLA-A*02:02 (setting [2]) were 171 nM, 792 nM and 342 nM, respectively.
As to IISSKQYPA, the Kd with HLA-A*02:06 (setting [1]) is 1160 nM; with HLA-A*02:03 (setting [1]), 612 nM; with HLA-A*02:02 (setting [1]) it was 164 nM.
Turning to ILSCIFAFI, the Kd with HLA-A*02:06 (setting [3]) worked out at 8.84 nM; in the test with HLA-A*02:03 (setting [3]) it was 3.08 nM; with HLA-A*02:02 (setting [3]), 0.79 nM.
LITNTKSDNI: the figures for the Kd with HLA-A*02:06 (setting [1]), in the test with HLA-A*02:03 (setting [1]) and with HLA-A*02:02 (setting [1]) were 18700 nM, 3080 nM and 2250 nM, respectively.
Take PLPCQLMYAL: the values for the Kd in the test with HLA-A*02:06 (setting [1]), in the test with HLA-A*02:03 (setting [1]) and with HLA-A*02:02 (setting [1]) were 9810 nM, 8710 nM and 163 nM, respectively.
The like results for SMTSDSKSI were, in that order, no less than 55800 nM, 2300 nM and 8350 nM.
The like results for DLDKVYEIL were, in that order, no less than 53700 nM, no less than 26300 nM and 19600 nM.
Turning to ETMYLTMKA, the values for the Kd with HLA-A*02:06 (setting [1]), in the test with HLA-A*02:03 (setting [1]) and with HLA-A*02:02 (setting [1]) were 12700 nM, 942 nM and 7850 nM, respectively.
The matching figures for VTLFIDRGSI: 3010 nM, 2250 nM and 3830 nM.
The like results for ELKDLLNVT were, in that order, no less than 38400 nM, 209 nM and 1540 nM.
The matching figures for QTLISLNSM: 7510 nM, no less than 39300 nM and 19400 nM.
FLLFLVLIML: the Kd with HLA-A*02:06 (setting [2]) turned out to be 2920 nM; in the test with HLA-A*02:03 (setting [2]) it was 1380 nM; in the test with HLA-A*02:02 (setting [2]) it was 1570 nM.
Consider NVSRVVECL, for which the Kd with HLA-A*02:06 (setting [1]) is 1030 nM; with HLA-A*02:03 (setting [1]), 938 nM; in the test with HLA-A*02:02 (setting [1]) it was 133 nM.
The matching figures for TLVKSGLTEV: 45.1 nM, 2.93 nM and 64.1 nM.
Regarding LMWFIISIV, the results for the Kd with HLA-A*02:06 (setting [2]), in the test with HLA-A*02:03 (setting [2]) and in the test with HLA-A*02:02 (setting [2]) were 26.8 nM, 7.18 nM and 60.1 nM, respectively.
For the sequence LIANIFTPLV, the Kd in the test with HLA-A*02:06 (setting [2]) stood at 15.7 nM; with HLA-A*02:03 (setting [2]), 13.4 nM; with HLA-A*02:02 (setting [2]), 0.398 nM.
For the sequence PTEMVDVSM, the Kd in the test with HLA-A*02:06 (setting [1]) was no less than 40200 nM; in the test with HLA-A*02:03 (setting [1]) it was no less than 41300 nM; in the test with HLA-A*02:02 (setting [1]), 10600 nM.
The like results for YTKHSMLTNA were, in that order, 7340 nM, 141 nM and 3900 nM.
As for TSDSKSIENK, the Kd in the test with HLA-A*03:01 (setting [1]) was 10400 nM; in the test with HLA-A*31:01 (setting [1]) it was 14400 nM; in the test with HLA-A*68:01 (setting [1]) it was 369 nM; with HLA-A*33:01 (setting [1]), no less than 34200 nM; with HLA-A*11:01 (setting [1]), 534 nM.
The like results for SISSVLTILY were, in that order, 206 nM, 9230 nM, 907 nM, 2240 nM and 107 nM.
The like results for LTTHCTKLR were, in that order, no less than 78000 nM, 8510 nM, 300 nM, 4530 nM and no less than 77900 nM.
On to TMLFTMLRK, for which the Kd with HLA-A*03:01 (setting [2]) was 7.41 nM; with HLA-A*31:01 (setting [2]), 901 nM; in the test with HLA-A*68:01 (setting [2]) it was 1580 nM; with HLA-A*33:01 (setting [2]), 13200 nM; with HLA-A*11:01 (setting [2]), 20 nM.
As for ALDEKWNEFK, the Kd in the test with HLA-A*03:01 (setting [1]) is 192 nM; in the test with HLA-A*31:01 (setting [1]) it was 7280 nM; with HLA-A*68:01 (setting [1]), 9850 nM; with HLA-A*33:01 (setting [1]), no less than 70000 nM; with HLA-A*11:01 (setting [1]), 98.2 nM.
Consider LVFNSISAR, for which the Kd stood at 4.22 nM in the test with HLA-A*03:01 (setting [1]); 2.5 nM with HLA-A*31:01 (setting [1]); 143 nM with HLA-A*68:01 (setting [1]); 1040 nM with HLA-A*33:01 (setting [1]); 27 nM in the test with HLA-A*11:01 (setting [1]).
The matching figures for YFSKQTQTY: 17300 nM, no less than 25000 nM, 1730 nM, no less than 30400 nM and no less than 27500 nM.
The like results for ITLDTMDDMK were, in that order, 3190 nM, 16700 nM, 122 nM, no less than 70000 nM and 42.3 nM.
On to STSPTRTWK, for which the Kd with HLA-A*03:01 (setting [3]) was 6.72 nM; with HLA-A*31:01 (setting [3]), 36.2 nM; in the test with HLA-A*68:01 (setting [3]), 5.87 nM; with HLA-A*33:01 (setting [3]) it was 6520 nM; in the test with HLA-A*11:01 (setting [3]), 0.803 nM.
On to YTKFWYVNH, for which the Kd is 10300 nM in the test with HLA-A*03:01 (setting [4]); 604 nM with HLA-A*31:01 (setting [4]); 6510 nM with HLA-A*68:01 (setting [4]); 28.2 nM in the test with HLA-A*33:01 (setting [4]); 17800 nM with HLA-A*11:01 (setting [4]).
Take NTTYDFLARK: the Kd with HLA-A*03:01 (setting [1]) came to 691 nM; with HLA-A*31:01 (setting [1]), 5550 nM; with HLA-A*68:01 (setting [1]), 9.58 nM; in the test with HLA-A*33:01 (setting [1]), 4510 nM; with HLA-A*11:01 (setting [1]) it was 31.8 nM.
Take SADASTFLK: the Kd was determined as 16.4 nM with HLA-A*03:01 (setting [2]); 99.8 nM in the test with HLA-A*31:01 (setting [2]); 12 nM with HLA-A*68:01 (setting [2]); 2570 nM with HLA-A*33:01 (setting [2]); 2.97 nM with HLA-A*11:01 (setting [2]).
For the sequence STSAFIDTIK, the Kd with HLA-A*03:01 (setting [2]) was 1090 nM; in the test with HLA-A*31:01 (setting [2]) it was 8800 nM; with HLA-A*68:01 (setting [2]), 25.9 nM; with HLA-A*33:01 (setting [2]), no less than 47100 nM; with HLA-A*11:01 (setting [2]), 15.6 nM.
Consider AQYKCVTIKY, for which the Kd was 220 nM in the test with HLA-A*03:01 (setting [1]); 2140 nM with HLA-A*31:01 (setting [1]); 967 nM with HLA-A*68:01 (setting [1]); no less than 21900 nM with HLA-A*33:01 (setting [1]); 80.1 nM in the test with HLA-A*11:01 (setting [1]).

As a reminder, the Kd is the constant that tells how readily two partners part at equilibrium.
